Assay results from PMC10355216 (2023).
Values belong to the binder of their own block, whether it stands above or below them. Where no end group is shown, it is not given here.

Tests used:
[1] = molecular target: T1, recombinant CSN^ΔCSNAP complex (UniProt Q13098 1-491; Q9UNS2 1-423; Q92905 1-334; Q99627 2-209); test: SPR
[2] = molecular target: T1, recombinant CSN^ΔCSNAP complex; test: SPR; remark: listed apart in the source

koff [1]: 0.00016 s⁻¹
Kd [2]: 0.068 nM
B1: full-length CSNAP, C-terminally biotinylated (natural protein)
chain: MKPAVDEMFPEGAGPYVDLDEAGGSTGLLMDLAANEKAVHADFFNDFEDLFDDDDIQ-biotin

koff [1]: 0.001 s⁻¹
Kd [2]: 0.41 nM
B2: 20AA C-CSNAP peptide, C-terminally biotinylated (peptide)
peptide: AVHADFFNDFEDLFDDDDIQ-biotin

koff [1]: 0.0014 s⁻¹
Kd [2]: 0.4 nM
B3: 16AA C-CSNAP peptide, C-terminally biotinylated (peptide)
peptide: DFFNDFEDLFDDDDIQ-biotin

koff [1]: 0.0027 s⁻¹
Kd [2]: 2.5 nM
B4: D42E C-CSNAP peptide, C-terminally biotinylated (peptide)
peptide: EFFNDFEDLFDDDDIQ-biotin
